Several values for one entry are separate records, joined by “and”; a condition that tells them apart may be missing. Identical values can stand only once. Like-named read-outs stand apart in the source and are kept apart here.
Key:
[1] = tested on: receptor-negative human melanoma M21L cells; assay: Cell uptake and internalization in M21L cells; format: cell-based; settings: negative M21L cell line, 37 °C, 90 min
Procedure: Cell uptake and internalization studies were performed on receptor-positive human melanoma M21 (expressing high levels of αvβ3 integrin and moderate level of integrin αvβ5), human breast cancer MCF7 (exclusively expressing αvβ5), and receptor-negative human melanoma M21L cell lines. The expression of αvβ3 and αvβ5 by cells was already evaluated by flow cytometry (Table 2). The stability of each radiolabeled peptide in the culture media before and after cell exposure was assessed.
Experiments were conducted in suspension at 37 °C. The working conditions were set up to avoid cell damage and/or death. With the use of these information, the cells were pre-incubated in sterile glass tubes at 37 °C for 10 min, in the presence or not of cRGDfK pentapeptide (50 µL; 1.65 mM).
Then, 1 mL of the cell suspension (1 × 10^6 cells/mL) was incubated with intermittent agitation with 10 µL (10 µCi) of ^99mTc1–3. At 90 min, the cells were moved in Eppendorf microcentrifuge tubes (1.5 mL) and the incubation was interrupted by centrifugation (3000 rpm for 5 min at 10 °C). The supernatant (S1) was separated from the pellet. The cell pellet was treated 10 min at room temperature with saline acetate buffer (CH3COOH 0.2M/NaCl 0.5 M) to remove the membrane-bound compound. After centrifugation (3000 rpm for 10 min at 10 °C), the supernatant (S2) was separated from the pellet (P1), and each fraction was collected, placed in a separated counting tube, and the activity was measured using a NaI counter (Cobra II, Packard) to estimate both the cell uptake and the internalized fraction.
The uptake of complexes was expressed as percentage cell uptake of the total activity on 10^6 cells (% cell uptake/10^6 cells).
All assessments were conducted in triplicate for three experiments.

[2] = design: species or system Sprague Dawley rats; settings: rat, in vivo, iv, 15 uCi/100 uL
Procedure: Pharmacokinetics and metabolism.
Female Sprague Dawley rats weighing 180–200 g were anesthetized with an intraperitoneal injection of a mixture of Zoletil (40 mg/kg) and xylazine (2 mg/kg). A jugular vein was surgically exposed, and the solution containing the radiolabeled peptide was injected (15 µCi/100 µL). The rats (n = 3) were scarified by cervical dislocation at different times after injection. The blood was withdrawn from the heart with a syringe immediately after death and quantified. Organs were excised, rinsed in saline, weighed, and the activity was counted in a NaI counter. The results were expressed as the percentage of injected activity per gram of tissue (%IA/g) to be able to compare our results with those reported in the literature.

[3] = tested on: M21 (αvβ3-positive) and M21L (αvβ3-negative) melanoma tumors; format: in vivo, NSG mice; settings: 120 min p.i.
Procedure: In vivo tumor uptake. The in vivo integrin targeting properties of the [^99mTcN(PNP)]-labeled peptide were evaluated in M21 (integrin-positive) and M21L (integrin-negative) melanoma-bearing mice by comparing the percentage of tumor uptake of the three compounds in tumors and the respective target-to-non-target ratios. Biodistribution data outlined some differences in organ uptake compared with those attained in rats at the same injection time because the rate of metabolism is different in each animal species. […] The high renal uptake of radiotracers is partially due to their rate of excretion as well as to a specific uptake by integrins expression in the kidneys; for ^99mTc3, the M21-to-kidney ratio was 1.37.
Human melanoma M21(αvβ3-positive) were injected subcutaneously (s.c. 1 × 10^6 cells) in the right flank of six week-old male NSG mice (Charles River Laboratories). As a negative control, M21L (αvβ3-negative) were inoculated s.c. (1 × 10^6 cells) in the left flank of the same mice. Fifteen days after the inoculation, when the tumors are palpable (5–3 mm), the mice were injected in the tail vein with the selected radiolabeled peptide (20 µCi/100 µL of PBS). A group of six animals was sacrificed at 120 min p.i. by CO2 inhalation. A sample of blood was collected and tumors and normal tissues of interest were dissected, rinsed to remove the excess of blood, weighted, and their radioactivity measured using a NaI counter. Results are expressed as the percentage of injected activity per gram (% IA/g) and tumor-to-organ ratios were calculated.

Substance: [Tc(N)(H2NS-cRGDfK)(PNP43)]^+ [^99mTc2]
- cell uptake (sum of surface bound and internalized radioactivity) [1]: 1.65 ± 0.40 % cell uptake/10^6 cells
- Blood ([2]; 0.5 h): 0.65 ± 0.04 %IA/g
- Heart ([2]; 0.5 h): 0.30 ± 0.01 %IA/g
- Intestine ([2]; 0.5 h): 1.19 ± 0.14 %IA/g
- Kidneys ([2]; 0.5 h): 6.77 ± 0.86 %IA/g
- Liver ([2]; 0.5 h): 0.90 ± 0.13 %IA/g
- Lungs ([2]; 0.5 h): 0.82 ± 0.09 %IA/g
- Muscle ([2]; 0.5 h): 0.22 ± 0.03 %IA/g
- Spleen ([2]; 0.5 h): 0.47 ± 0.02 %IA/g
- Stomach ([2]; 0.5 h): 0.82 ± 0.07 %IA
- Urine ([2]; 0.5 h): 17.7 ± 3.6 %IA
- Blood ([2]; 1 h): 0.35 ± 0.07 %IA/g
- Heart ([2]; 1 h): 0.20 ± 0.04 %IA/g
- Intestine ([2]; 1 h): 1.69 ± 0.17 %IA/g
- Kidneys ([2]; 1 h): 6.20 ± 0.68 %IA/g
- Liver ([2]; 1 h): 0.73 ± 0.01 %IA/g
- Lungs ([2]; 1 h): 0.56 ± 0.10 %IA/g
- Muscle ([2]; 1 h): 0.14 ± 0.03 %IA/g
- Spleen ([2]; 1 h): 0.40 ± 0.05 %IA/g
- Stomach ([2]; 1 h): 0.64 ± 0.08 %IA
- Urine ([2]; 1 h): 28.5 ± 4.6 %IA
- Blood ([2]; 2 h): 0.19 ± 0.04 %IA/g
- Heart ([2]; 2 h): 0.15 ± 0.06 %IA/g
- Intestine ([2]; 2 h): 1.94 ± 0.25 %IA/g
- Kidneys ([2]; 2 h): 5.51 ± 0.42 %IA/g
- Liver ([2]; 2 h): 0.57 ± 0.03 %IA/g
- Lungs ([2]; 2 h): 0.42 ± 0.02 %IA/g
- Muscle ([2]; 2 h): 0.12 ± 0.01 %IA/g
- Spleen ([2]; 2 h): 0.38 ± 0.04 %IA/g
- Stomach ([2]; 2 h): 0.51 ± 0.08 %IA
- Urine ([2]; 2 h): 41.5 ± 4.5 %IA
- Blood ([2]; 4 h): 0.11 ± 0.02 %IA/g
- Heart ([2]; 4 h): 0.12 ± 0.01 %IA/g
- Intestine ([2]; 4 h): 1.90 ± 0.19 %IA/g
- Kidneys ([2]; 4 h): 4.27 ± 0.31 %IA/g
- Liver ([2]; 4 h): 0.52 ± 0.07 %IA/g
- Lungs ([2]; 4 h): 0.34 ± 0.04 %IA/g
- Muscle ([2]; 4 h): 0.09 ± 0.00 %IA/g
- Spleen ([2]; 4 h): 0.34 ± 0.07 %IA/g
- Stomach ([2]; 4 h): 0.41 ± 0.09 %IA
- Urine ([2]; 4 h): 43.5 ± 3.4 %IA
- M21/M21L ratio [3]: 2.57
- M21/blood ratio [3]: 11.26
- M21/kidneys ratio [3]: 0.32
- M21/liver ratio [3]: 0.44
- M21/lung ratio [3]: 1.04
- M21/muscle ratio [3]: 3.54
- M21L tumor uptake ([3]; integrin-negative M21L control tumor): 0.42 ± 0.05 %IA/g
- M21 tumor uptake ([3]; integrin-positive M21 xenograft): 1.1 ± 0.2 %IA/g and 1.08 ± 0.24 %IA/g
- Blood ([3]; tumor-bearing mice): 0.12 ± 0.03 %IA/g
- Heart ([3]; tumor-bearing mice): 0.48 ± 0.07 %IA/g
- Intestine ([3]; tumor-bearing mice): 2.45 ± 0.29 %IA/g
- Kidneys ([3]; tumor-bearing mice): 3.38 ± 0.36 %IA/g
- Liver ([3]; tumor-bearing mice): 2.43 ± 0.23 %IA/g
- Lungs ([3]; tumor-bearing mice): 1.04 ± 0.08 %IA/g
- Muscle ([3]; tumor-bearing mice): 0.31 ± 0.05 %IA/g
- Spleen ([3]; tumor-bearing mice): 1.26 ± 0.04 %IA/g
- Stomach ([3]; tumor-bearing mice): 1.02 ± 0.16 %IA
